The labels stand for the following.
B1: p41 (peptide)
chain: LSFYPAEITLTWQRD
B2: p30 (peptide)
chain: HKWEAAHVAEQLRAY
B3: p31 (peptide)
chain: AHVAEQLRAYLEGTC
B4: p53* (peptide)
chain: IPIVGIIAGLVLFGA
B5: p49 (peptide)
chain: EGLPKPLTLRWEPSS
B6: p46* (peptide)
chain: FQKWAAVVVPSGQEQR
B7: p36 (peptide)
chain: RRYLENGKETLQRTD
B8: p27 (peptide)
chain: EDLRSWTAADMAAQT
B9: p37 (peptide)
chain: ETLQRTDAPKTHMTH
B10: p48 (peptide)
chain: EQRYTCHVQHEGLPKP
B11: p33 (peptide)
chain: RAYLEGTCVEWLRRY
B12: p35* (peptide)
chain: VEWLRRYLENGKETL
B13: p38 (peptide)
chain: THMTHHAVSDHEATL
B14: p47 (peptide)
chain: AAVVVPSGQEQRYTC
B15: p34* (peptide)
chain: TCVEWLRRYLENGKE
B16: p24 (peptide)
chain: YAYDGKDYIALKEDL
B17: p32 (peptide)
chain: EQLRAYLEGTCVEWL
B18: p51* (peptide)
chain: LTLRWEPSSQPTIPI
B19: p45* (peptide)
chain: GTFQKWAAVVVPSGQ
B20: p29 (peptide)
chain: ADMAAQTTKHKWEAA
B21: p44 (peptide)
chain: TELVETRPAGDGTFQ

One test addresses HLA-DRB1*0101 (human). Put plainly: competition binding. As to conditions: modification not given.
The IC50 is the point on the concentration scale where inhibition reaches its midpoint. Read a low IC50 as inhibition by little substance. As for B1, the half-maximal inhibitory concentration (IC50) came to 0.05 µM.
Consider B2, for which the IC50 was 0.029 µM.
B3: the IC50 was 0.629 µM.
With B4, the IC50 came out at 0.026 µM.
In turn, B5 had an IC50 of 0.497 µM.
B6 displayed an IC50 of 0.218 µM.
On to B7, for which the IC50 amounted to 0.704 µM.
Regarding B8, the IC50 was over 100 µM.
For the molecule B9, the IC50 is 2 µM.
For B10, the IC50 amounted to 1.92 µM.
With B11, the IC50 came to 0.025 µM.
The same measure, in the same setting: with B12 the figure was 0.598 µM; with B13, 8 µM; with B14, 2.24 µM.
On the same count and under the same terms, with B15 the figure was over 100 µM.
Same read-out and setting: with B16 the figure was 0.035 µM; with B17, 0.063 µM; with B18, 0.525 µM.
As for B19, the IC50 came out at 0.004 µM.
For B20, the half-maximal inhibitory concentration (IC50) was 40 µM.
Still for that read-out and setting: as for B21, the figure is 4.47 µM.

Another test has as its target HLA-DRB1*0301 (human). The test is described as follows: competition binding. As to conditions: modification not given.
B1 returned an IC50 of over 100 µM.
In the case of B2, the IC50 turned out to be 16.5 µM.
B3 displayed an IC50 of over 100 µM.
Turning to B5, the IC50 was over 100 µM.
The molecule B6 registered an IC50 of 7.35 µM.
Still for that read-out and setting: with B7 the figure was over 100 µM; with B8, over 100 µM.
For the molecule B9, the IC50 was over 100 µM.
On to B10, for which the IC50 was over 100 µM.
B11 showed an IC50 of 34.9 µM.
Same read-out and setting: as for B12, the figure is over 100 µM; as for B13, over 100 µM; as for B14, 0.98 µM.
The molecule B15 had an IC50 of over 100 µM.
As to B16, the IC50 is over 100 µM.
In turn, B17 yielded a half-maximal inhibitory concentration (IC50) of 1.84 µM.
With B18, the IC50 was over 100 µM.
Molecule B19 returned an IC50 of over 100 µM.
As to B20, the IC50 was over 100 µM.
For the molecule B21, the IC50 is over 100 µM.

The target of the next test is HLA-DRB1*0401 (human). Put plainly: competition binding. As to conditions: modification not given.
In the case of B1, the 50% inhibitory concentration (IC50) worked out at 0.917 µM.
In turn, B2 showed an IC50 of 0.118 µM.
On the same count and under the same terms, with B3 the figure was over 100 µM; with B4, over 100 µM.
B5 returned an IC50 of 0.497 µM.
With B6, the IC50 is 0.326 µM.
The molecule B7 returned an IC50 of 28 µM.
For B8, the IC50 is over 100 µM.
Turning to B9, the IC50 is 60 µM.
On to B10, for which the IC50 was found to be 57.4 µM.
Same read-out and setting: as for B11, the figure is 9.17 µM; as for B12, over 100 µM; as for B13, over 100 µM.
Consider B14, for which the 50% inhibitory concentration (IC50) is over 100 µM.
In turn, B15 returned an IC50 of over 100 µM.
As for B16, the half-inhibitory concentration (IC50) is 3.87 µM.
In turn, B17 came in with an IC50 of 1.73 µM.
For the molecule B18, the half-inhibitory concentration (IC50) amounted to 0.497 µM.
On to B19, for which the IC50 is 0.099 µM.
Regarding B20, the IC50 is over 100 µM.
B21 returned an IC50 of 70.4 µM.

The target in a further test is HLA-DRB1*0701 (human). Put plainly: competition binding. As to conditions: modification not given.
Take B1: the IC50 is over 100 µM.
In turn, B2 yielded an IC50 of 0.401 µM.
Same read-out and setting: as for B3, the figure is over 100 µM; as for B4, 0.179 µM; as for B5, 71 µM.
Molecule B6 showed an IC50 of 0.7 µM.
On the same count and under the same terms, with B7 the figure was over 100 µM; with B8, over 100 µM; with B9, 3.13 µM.
On to B10, for which the IC50 came out at 29.5 µM.
For B11, the IC50 was 0.637 µM.
In the case of B12, the half-inhibitory concentration (IC50) is over 100 µM.
On the same count and under the same terms, with B13 the figure was 53.7 µM.
Molecule B14 gave an IC50 of 42.2 µM.
In turn, B15 showed an IC50 of over 100 µM.
Regarding B16, the half-inhibitory concentration (IC50) is 4.47 µM.
Same read-out and setting: as for B17, the figure is 0.149 µM; as for B18, 0.072 µM; as for B20, over 100 µM.
As for B21, the IC50 was 2.16 µM.

The target in the next test is HLA-DRB1*1101 (human). The test is described as follows: competition binding. As to conditions: modification not given.
Turning to B1, the IC50 is 2.35 µM.
With B2, the half-maximal inhibitory concentration (IC50) turned out to be 0.379 µM.
Molecule B3 returned an IC50 of 3.34 µM.
In turn, B4 gave an IC50 of over 100 µM.
As for B5, the IC50 stood at 2.06 µM.
In turn, B6 gave an IC50 of 0.626 µM.
Still for that read-out and setting: with B7 the figure was 0.738 µM.
The same measure, in the same setting: as for B8, the figure is over 100 µM.
For B9, the IC50 was over 100 µM.
B10 gave an IC50 of 0.693 µM.
In turn, B11 returned a concentration for half-maximal inhibition (IC50) of 0.872 µM.
Same read-out and setting: with B12 the figure was 0.251 µM; with B13, over 100 µM; with B14, 68.9 µM.
Molecule B15 showed an IC50 of 0.245 µM.
B16 had an IC50 of 0.184 µM.
Same read-out and setting: with B17 the figure was 0.424 µM.
As for B18, the IC50 was over 100 µM.
The molecule B19 had an IC50 of 0.34 µM.
On the same count and under the same terms, with B20 the figure was over 100 µM; with B21, 8.75 µM.

The next test deals with HLA-DRB1*1301 (human). The test is described as follows: competition binding. As to conditions: modification not given.
In turn, B1 had an IC50 of over 100 µM.
B2: the IC50 is over 100 µM.
On the same count and under the same terms, as for B3, the figure is 8.06 µM; as for B4, 1.37 µM; as for B5, over 100 µM.
B6 gave an IC50 of over 100 µM.
As for B7, the IC50 is 11.6 µM.
As for B8, the IC50 is over 100 µM.
For B9, the IC50 was over 100 µM.
Still for that read-out and setting: as for B10, the figure is over 100 µM; as for B11, 13.4 µM; as for B12, 8.06 µM.
B13: the IC50 is over 100 µM.
In turn, B14 came in with an IC50 of 7.48 µM.
B15 came in with an IC50 of 5 µM.
In turn, B16 had an IC50 of over 100 µM.
Turning to B17, the IC50 is over 100 µM.
Same read-out and setting: as for B18, the figure is over 100 µM; as for B19, over 100 µM.
Molecule B20 registered an IC50 of 3.84 µM.
B21 gave an IC50 of over 100 µM.

The next test concerns the target HLA-DRB1*1501 (human). Put plainly: competition binding. As to conditions: modification not given.
The molecule B1 gave an IC50 of over 100 µM.
On to B2, for which the IC50 amounted to 0.938 µM.
Regarding B3, the IC50 was 0.026 µM.
The molecule B4 had an IC50 of 0.283 µM.
Turning to B5, the IC50 amounted to 50.2 µM.
The molecule B6 returned an IC50 of over 100 µM.
In the case of B7, the IC50 came out at 69 µM.
B8 came in with an IC50 of 0.648 µM.
As to B9, the IC50 was over 100 µM.
Same read-out and setting: with B10 the figure was over 100 µM.
For the molecule B11, the IC50 was determined as 4.74 µM.
Still for that read-out and setting: as for B12, the figure is 0.245 µM; as for B13, over 100 µM.
The molecule B14 displayed an IC50 of over 100 µM.
On the same count and under the same terms, with B15 the figure was 22.2 µM.
B16 gave a 50% inhibitory concentration (IC50) of over 100 µM.
In turn, B17 showed an IC50 of 0.267 µM.
The molecule B18 registered an IC50 of 2.44 µM.
For the molecule B19, the 50% inhibitory concentration (IC50) worked out at 0.474 µM.
The molecule B20 gave an IC50 of over 100 µM.
The same measure, in the same setting: as for B21, the figure is over 100 µM.

The target in a further test is HLA-DRB3*0101 (human). Put plainly: competition binding. As to conditions: modification not given.
On to B2, for which the IC50 was found to be 0.806 µM.
Regarding B5, the IC50 came out at 4.69 µM.
B6 came in with an IC50 of 1.73 µM.
As for B7, the IC50 was 4.85 µM.
For the molecule B8, the IC50 is 1.88 µM.
As to B9, the IC50 is 27.6 µM.
For the molecule B10, the IC50 turned out to be 20.5 µM.
The molecule B11 had an IC50 of 8.94 µM.
On the same count and under the same terms, as for B14, the figure is 1.53 µM.
The molecule B15 displayed an IC50 of 58.1 µM.
In turn, B16 came in with an IC50 of over 100 µM.
B17: the IC50 is 1.09 µM.
The molecule B18 came in with an IC50 of 29 µM.
As for B19, the 50% inhibitory concentration (IC50) was 0.045 µM.
On to B20, for which the IC50 is 0.033 µM.

A further test has as its target HLA-DRB4*0101 (human). The test is described as follows: competition binding. As to conditions: modification not given.
B5: the IC50 was determined as 33.9 µM.
With B11, the IC50 was found to be 12.6 µM.
Consider B16, for which the IC50 was over 100 µM.
In turn, B18 showed a concentration for half-maximal inhibition (IC50) of 26 µM.

(Values after patent US20110038881A1, “PROGNOSTIC ASSAY FOR DETERMINING T CELL RESPONSE TO HLA ANTIGENS AND USE THEREOF IN FIELD OF TISSUE TRANSPLANTATION” (priority 2007, published 2011).)
